PMC5065780

Molecular target: VP35 IID (interferon inhibitory domain) (Ebola virus, UniProt X5GXU1 215-340)
Experiment: EMSA

B1: 10 bp dsRNA probe (dsRNA)
RNA 1: CACUGCGACC
RNA 2: GGUCGCAGUG
Question: Does B1 bind?
Answer: binds
